This experiment addresses 3xFLAG-tagged nascent chain of Sec61β with the transferrin receptor TMD, truncated at position 128 (TMD exposed). Nature of the experiment: co-IP; unbound fractions of the translation reactions after anti-FLAG purification of the RNCs, immunoblotted relative to serial dilutions of total lysate (depletion).

As for “SRP54 subunit of the signal recognition particle (SRP) (from UniProt G1STX4 1-499) (natural protein)”, the percent of SRP in the lysate depleted turned out to be 90%.

For the origin of these results see article PMC4497383.
